Test results reported in patent US20210388087A1 (Chugai, published 2021).
Numbering of substitutions follows the chain as printed. Names may count otherwise. Blank lines part the entries; values can stand above or below the binder they belong to.

Target: T1, Human CD3eg linker (human)
T1 construct: Single chain: epsilon and gamma subunits of human CD3 joined by a 29-mer linker, Flag-tag at the C-terminus; also called recombinant human CD3
T1 chain: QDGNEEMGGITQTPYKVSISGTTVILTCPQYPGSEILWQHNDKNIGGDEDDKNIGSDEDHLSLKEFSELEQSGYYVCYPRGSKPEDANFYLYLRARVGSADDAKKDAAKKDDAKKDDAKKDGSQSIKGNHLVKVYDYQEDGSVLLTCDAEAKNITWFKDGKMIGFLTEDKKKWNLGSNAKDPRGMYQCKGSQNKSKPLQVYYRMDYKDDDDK
Experiment: Biacore SPR, vs template H183/L072

fold change of affinity: 1 fold
B1: H183/L072 VH A60V (antibody, name in Kabat numbering, V domains shown)
VH: QVQLVESGGGLVQPGRSLRLSCAASGFTFSNAWMHWVRQAPGKGLEWVAQIKDKGNAYAAYYVPSVKGRFTISRDDSKNSIYLQMNSLKTEDTAVYYCHYVHYASASTVLPAFGVDAWGQGTTVTVSS
VL: DIVMTQSPLSLPVTPGEPASISCQASQELVHMNRNTYLHWYQQKPGQAPRLLIYKVSNRFPGVPDRFSGSGSGTDFTLKISRVEAEDVGVYYCAQGTSVPFTFGQGTKLEIK

fold change of affinity: 1 fold
B2: H183/L072 VH A100fI (antibody, name in Kabat numbering, V domains shown)
VH: B1 VH with V63A, A112I
VL: B1 VL

fold change of affinity: 0.3 fold
B4: H183/L072 VH D52aH (antibody, name in Kabat numbering, V domains shown)
VH: B1 VH with D53H, V63A
VL: B1 VL

fold change of affinity: 0 fold
B5: H183/L072 VH D52aL (antibody, name in Kabat numbering, V domains shown)
VH: B1 VH with D53L, V63A
VL: B1 VL

fold change of affinity: 0 fold
B6: H183/L072 VH D52aI (antibody, name in Kabat numbering, V domains shown)
VH: B1 VH with D53I, V63A
VL: B1 VL

fold change of affinity: 0 fold
B7: H183/L072 VH D52aY (antibody, name in Kabat numbering, V domains shown)
VH: B1 VH with D53Y, V63A
VL: B1 VL

fold change of affinity: 0 fold
B10: H183/L072 VH D52aR (antibody, name in Kabat numbering, V domains shown)
VH: B1 VH with D53R, V63A
VL: B1 VL

fold change of affinity: 1.4 fold
B13: H183/L072 VH A100I (antibody, name in Kabat numbering, V domains shown)
VH: B1 VH with V63A, A106I
VL: B1 VL

fold change of affinity: 0 fold
B14: H183/L072 VH D52aM (antibody, name in Kabat numbering, V domains shown)
VH: B1 VH with D53M, V63A
VL: B1 VL

fold change of affinity: 0.9 fold
B15: H183/L072 VH A102I (antibody, name in Kabat numbering, V domains shown)
VH: B1 VH with V63A, A117I
VL: B1 VL

fold change of affinity: 0 fold
B16: H183/L072 VH A102P (antibody, name in Kabat numbering, V domains shown)
VH: B1 VH with V63A, A117P
VL: B1 VL

fold change of affinity: 1.2 fold
B18: H183/L072 VH A100fL (antibody, name in Kabat numbering, V domains shown)
VH: B1 VH with V63A, A112L
VL: B1 VL

fold change of affinity: 0.7 fold
B20: H183/L072 VH A102L (antibody, name in Kabat numbering, V domains shown)
VH: B1 VH with V63A, A117L
VL: B1 VL

fold change of affinity: 0.7 fold
B22: H183/L072 VH D101M (antibody, name in Kabat numbering, V domains shown)
VH: B1 VH with V63A, D116M
VL: B1 VL

fold change of affinity: 2.3 fold
B23: H183/L072 VH D101L (antibody, name in Kabat numbering, V domains shown)
VH: B1 VH with V63A, D116L
VL: B1 VL

fold change of affinity: 0 fold
B28: H183/L072 VH D52aW (antibody, name in Kabat numbering, V domains shown)
VH: B1 VH with D53W, V63A
VL: B1 VL

fold change of affinity: 0.2 fold
B30: H183/L072 VH F27A (antibody, name in Kabat numbering, V domains shown)
VH: B1 VH with F27A, V63A
VL: B1 VL

fold change of affinity: 1.2 fold
B31: H183/L072 VH A100L (antibody, name in Kabat numbering, V domains shown)
VH: B1 VH with V63A, A106L
VL: B1 VL

fold change of affinity: 0 fold
B33: H183/L072 VH D52aS (antibody, name in Kabat numbering, V domains shown)
VH: B1 VH with D53S, V63A
VL: B1 VL

fold change of affinity: 1 fold
B34: H183/L072 VH A98M (antibody, name in Kabat numbering, V domains shown)
VH: B1 VH with V63A, A104M
VL: B1 VL

fold change of affinity: 0 fold
B35: H183/L072 VH F27D (antibody, name in Kabat numbering, V domains shown)
VH: B1 VH with F27D, V63A
VL: B1 VL

fold change of affinity: 0 fold
B37: H183/L072 VH D52aV (antibody, name in Kabat numbering, V domains shown)
VH: B1 VH with D53V, V63A
VL: B1 VL

fold change of affinity: 0 fold
B38: H183/L072 VH D52aQ (antibody, name in Kabat numbering, V domains shown)
VH: B1 VH with D53Q, V63A
VL: B1 VL

fold change of affinity: 0 fold
B39: H183/L072 VH D52aP (antibody, name in Kabat numbering, V domains shown)
VH: B1 VH with D53P, V63A
VL: B1 VL

fold change of affinity: 0 fold
B42: H183/L072 VH D52aA (antibody, name in Kabat numbering, V domains shown)
VH: B1 VH with D53A, V63A
VL: B1 VL

fold change of affinity: 0.6 fold
B44: H183/L072 VH D101I (antibody, name in Kabat numbering, V domains shown)
VH: B1 VH with V63A, D116I
VL: B1 VL

Further lines, the binder ahead of its results:

B3: H183/L072 VH A100fP (antibody, name in Kabat numbering, V domains shown)
VH: B1 VH with V63A, A112P
VL: B1 VL
fold change of affinity: 0.6 fold

B8: H183/L072 VH A98L (antibody, name in Kabat numbering, V domains shown)
VH: B1 VH with V63A, A104L
VL: B1 VL
fold change of affinity: 3.7 fold

B9: H183/L072 VH D101A (antibody, name in Kabat numbering, V domains shown)
VH: B1 VH with V63A, D116A
VL: B1 VL
fold change of affinity: 0.8 fold

B11: H183/L072 VH A98P (antibody, name in Kabat numbering, V domains shown)
VH: B1 VH with V63A, A104P
VL: B1 VL
fold change of affinity: 0.2 fold

B12: H183/L072 VH A98I (antibody, name in Kabat numbering, V domains shown)
VH: B1 VH with V63A, A104I
VL: B1 VL
fold change of affinity: 4.6 fold

B17: H183/L072 VH A60Y (antibody, name in Kabat numbering, V domains shown)
VH: B1 VH with V63Y
VL: B1 VL
fold change of affinity: 0.7 fold

B19: H183/L072 VH A60W (antibody, name in Kabat numbering, V domains shown)
VH: B1 VH with V63W
VL: B1 VL
fold change of affinity: 1 fold

B21: H183/L072 VH A100M (antibody, name in Kabat numbering, V domains shown)
VH: B1 VH with V63A, A106M
VL: B1 VL
fold change of affinity: 1 fold

B24: H183/L072 VH A100P (antibody, name in Kabat numbering, V domains shown)
VH: B1 VH with V63A, A106P
VL: B1 VL
fold change of affinity: 1.3 fold

B25: H183/L072 VH F27E (antibody, name in Kabat numbering, V domains shown)
VH: B1 VH with F27E, V63A
VL: B1 VL
fold change of affinity: 0 fold

B26: H183/L072 VH A100fM (antibody, name in Kabat numbering, V domains shown)
VH: B1 VH with V63A, A112M
VL: B1 VL
fold change of affinity: 1.3 fold

B27: H183/L072 VH D52aK (antibody, name in Kabat numbering, V domains shown)
VH: B1 VH with D53K, V63A
VL: B1 VL
fold change of affinity: 0 fold

B29: H183/L072 VH A102M (antibody, name in Kabat numbering, V domains shown)
VH: B1 VH with V63A, A117M
VL: B1 VL
fold change of affinity: 1 fold

B32: H183/L072 VH D52aF (antibody, name in Kabat numbering, V domains shown)
VH: B1 VH with D53F, V63A
VL: B1 VL
fold change of affinity: 0 fold

B36: H183/L072 VH D101P (antibody, name in Kabat numbering, V domains shown)
VH: B1 VH with V63A, D116P
VL: B1 VL
fold change of affinity: 0 fold

B40: H183/L072 VH D52aG (antibody, name in Kabat numbering, V domains shown)
VH: B1 VH with D53G, V63A
VL: B1 VL
fold change of affinity: 0.2 fold

B41: H183/L072 VH D52aT (antibody, name in Kabat numbering, V domains shown)
VH: B1 VH with D53T, V63A
VL: B1 VL
fold change of affinity: 0 fold

B43: H183/L072 VH D52aE (antibody, name in Kabat numbering, V domains shown)
VH: B1 VH with D53E, V63A
VL: B1 VL
fold change of affinity: 0 fold

B45: H183/L072 VH D52aN (antibody, name in Kabat numbering, V domains shown)
VH: B1 VH with D53N, V63A
VL: B1 VL
fold change of affinity: 0.1 fold
